For this experiment, the target named is T1, human EPO-R (FDCP-1/hEPO-R cells) (Homo sapiens, UniProt P19235).
T1 construct: expressed in transfected cells; host or cells: FDCP-1 (murine hematopoietic progenitor cell line)
T1 sequence (P19235 25-508): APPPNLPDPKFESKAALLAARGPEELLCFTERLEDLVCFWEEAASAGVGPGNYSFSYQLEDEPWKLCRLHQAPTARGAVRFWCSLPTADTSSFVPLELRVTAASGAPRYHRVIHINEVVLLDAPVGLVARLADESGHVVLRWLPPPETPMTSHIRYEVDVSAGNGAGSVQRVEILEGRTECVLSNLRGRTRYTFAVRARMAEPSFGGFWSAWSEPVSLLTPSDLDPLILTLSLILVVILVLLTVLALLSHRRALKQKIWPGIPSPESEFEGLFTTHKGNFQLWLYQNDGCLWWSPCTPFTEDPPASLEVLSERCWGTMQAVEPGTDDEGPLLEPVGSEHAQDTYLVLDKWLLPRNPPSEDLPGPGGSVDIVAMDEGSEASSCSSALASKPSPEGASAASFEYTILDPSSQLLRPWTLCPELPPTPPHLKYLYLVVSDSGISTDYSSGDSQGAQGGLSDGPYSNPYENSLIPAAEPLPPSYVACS
Briefly: FDCP-1/hEPO-R cell proliferation bioassay. It is filed as cell-based.

“Also recorded” adds a separate entry of the source. Residues, ends and D or L forms follow the SMILES beside them. No end group written: not given here.

For the molecule `CC(C)C[C@@H]1NC(=O)[C@@H]2CCCN2C(=O)CNC(=O)[C@H](Cc2ccccc2)NC(=O)[C@H](Cc2c[nH]cn2)NC(=O)[C@@H](NC(=O)[C@H](CO)NC(=O)[C@H](Cc2ccc(O)cc2)NC(=O)[C@@H](NC(=O)CNC(=O)CN)[C@@H](C)O)CSSC[C@@H](C(=O)N[C@@H](CCCCN)C(=O)N2CCC[C@H]2C(=O)N[C@@H](CCC(N)=O)C(=O)NCC(=O)NCC(=O)N[C@@H](CO)C(=O)N[C@@H](CO)C(=O)N[C@@H](CCCCNC(=O)CCCCCNC(=O)CCCC[C@@H]2SC[C@@H]3NC(=O)N[C@@H]32)C(N)=O)NC(=O)[C@H](C(C)C)NC(=O)[C@H](Cc2c[nH]c3ccccc23)NC(=O)[C@H]([C@@H](C)O)NC1=O` [AF11505] (HELM PEPTIDE1{G.G.T.Y.S.C.H.F.G.P.L.T.W.V.C.K.P.Q.G.G.S.S.K.[am]}|PEPTIDE2{[O=C1N[C@H]2[C@H](CS[C@H]2CCCCC(=O)[*:2])N1].[O=C(CCCCCN[*:1])[*:2]]}$PEPTIDE1,PEPTIDE2,23:R3-2:R2|PEPTIDE1,PEPTIDE1,6:R3-15:R3$$$V2.0; N-terminus and C-terminus assumed; bridges inferred), the EC50 (free peptides, read-out: EPO-ED50) was ~1000 nM.
Take “GGTYSCHFGPLTWVCKPQGGSSK+G anti-B: biotinylated peptide preincubated with purified goat anti-biotin IgG at a 2:1 molar ratio (cysteine pairing not given here; also: biotinylated, site not given here, preincubated with goat anti-biotin IgG at 2:1 molar ratio)”: the “reduction in EPO-ED50 / increase in potency over the free peptide” value is reported as “one log reduction”.
For “Streptavidin: streptavidin alone, control for the complex [reference compound]”, the stimulatory effect alone entry (tested without peptide) was “some small stimulatory effect at the highest concentrations; also recorded: marginal activity at high concentrations”.

The values above are taken from patent US5830851A (Affymax Technologies N.V., priority 1995, dated 1998).
